Earlier results in patent US20210137911A1, “NOVEL CHRONOTHERAPY BASED ON CIRCADIAN RHYTHMS” (THE TRUSTEES OF THE UNIVERSITY OF PENNSYLVANIA, priority 2014, published 2021).

Conditions: in vivo

Molecule	½ Life
Filgrastim (protein, chains of the INN, looked up, N-terminal methionine) MTPLGPASSLPQSFLLKCLEQVRKIQGDGAALQEKLCATYKLCHPEELVLLGHSLGIPWAPLSSCPSQALQLAGCLSQLHSGLFLYQGLLQALEGISPELGPTLDTLQLDVADFATTIWQQMEELGMAPALQPTQGAMPAFASAFQRRAGGVLVASHLQSFLEVSYRVLRHLAQP	3.5 h
Idursulfase (protein, UniProt P22304 34-455; P22304 456-550, looked up) Iduronate 2-sulfatase 42 kDa …: TDALNVLLIIVDDLRPSLGCYGDKLVRSPNIDQLASHSLLFQNAFAQQAVCAPSRVSFLTGRRPDTTRLYDFNSYWRVHAGNFSTIPQYFKENGYVTMSVGKVFHPGISSNHTDDSPYSWSFPPYHPSSEKYENTKTCRGPDGELHANLLCPVDVLDVPEGTLPDKQSTEQAIQLLEKMKTSASPFFLAVGYHKPHIPFRYPKEFQKLYPLENITLAPDPEVPDGLPPVAYNPWMDIRQREDVQALNISVPYGPIPVDFQRKIRQSYFASVSYLDTQVGRLLSALDDLQLANSTIIAFTSDHGWALGEHGEWAKYSNFDVATHVPLIFYVPGRTASLPEAGEKLFPYLDPFDSASQLMEPGRQSMDLVELVSLFPTLAGLAGLQVPPRCPVPSFHVELCREGKNLLKHFRFRDLEEDPYLPG Iduronate 2-sulfatase 14 kDa …: NPRELIAYSQYPRPSDIPQWNSDKPSLKDIKIMGYSIRTIDYRYTVWVGFNPDEFLANFSDIHAGELYFVDSDPLQDHNMYNDSQGGDLFQLLMP	0.733 h
Tenecteplase (protein, UniProt P00750 36-562, looked up, variant T103N N117Q K296A H297A R298A R299A) Tissue-type plasminogen …: SYQVICRDEKTQMIYQQHQSWLRPVLRSNRVEYCWCNSGRAQCHSVPVKSCSEPRCFNGGTCQQALYFSDFVCQCPEGFAGKCCEIDTRATCYEDQGISYRGNWSTAESGAECTNWQSSALAQKPYSGRRPDAIRLGLGNHNYCRNPDRDSKPWCYVFKAGKYSSEFCSTPACSEGNSDCYFGNGSAYRGTHSLTESGASCLPWNSMILIGKVYTAQNPSAQALGLGKHNYCRNPDGDAKPWCHVLKNRRLTWEYCDVPSCSTCGLRQYSQPQFRIKGGLFADIASHPWQAAIFAAAAASPGERFLCGGILISSCWILSAAHCFQERFPPHHLTVILGRTYRVVPGEEEQKFEVEKYIVHKEFDDDTYDNDIALLQLKSDSSRCAQESSVVRTVCLPPADLQLPDWTECELSGYGKHEALSPFYSERLKEAHVRLYPSSRCTSQHLLNRTVTDNMLCAGDTRSGGPQANLHDACQGDSGGPLVCLNDGRMTLVGIISWGLGCGQKDVPGVYTKVTNYLDWIRDNMRP	1.9 h
